According to patent publication US20130058965A1, “INJECTABLE FORMULATIONS FOR PARENTERAL ADMINISTRATION” (MANNKIND CORPORATION, priority 2009, published 2013):

Molecular target: HLA-A*0201 (Homo sapiens, UniProt P04439, D140Y/D185E/D98H/E176V/E277Q/G131W/G231S/I119V/I121R/I166T/I218V/L300P/L318F/N151K/N90K/P208A/P217A/Q86G/Q94H/R138H/R169H/T345S)
Assay: NY-ESO-1 analogues, % peptide binding (Table 1)

| Substance | % Peptide Binding [%] |
| --- | --- |
| NY-ESO-1 157-165 (S157Y, C165V) (YLLMWITQV; Peptide analogue) [SEQ ID NO:13] | 80 |
| NY-ESO-1 157-165 (S157Y, L158(Nva), C165V) [SEQ ID NO:19] | 80 |
